Assay [1] has as its target T1, purified recombinant 161P2F10B extracellular domain (Tag5-161P2F10B ECD, amino acids 46-875) (human, UniProt O14638 46-875).
T1 construct: also called full length ECD
The assay can be described thus: SPR (BIAcore), MAb captured on chip, recombinant 161P2F10B injected, 1:1 fit.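 Further: purified human MAbs immobilised by capture on a CM5 chip surface, about 150 RU of antibody per cycle.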 Background: Surface plasmon resonance follows binding to a sensor surface in real time, without labels.
Excerpt: Briefly, each purified human MAb is captured onto a CM5 sensor chip surface. On average approximately 150 RUs of each MAb is captured in every cycle.

In assay [2] the target is T2, 161P2F10B variant 1 (human 161P2F10B), on the cell surface (human, UniProt O14638 1-875).
T2 construct: Cell surface pyrophosphatase/phosphodiesterase; also called 161P2F10B v.1; CD203c
The assay can be described thus: FACS titration on KU-812 cells, one site binding fit.
Description: At the end of the incubation, cells were washed and incubated with anti-hIgG-PE detection antibody for 45 min at 4° C. After washing the unbound detection antibodies, the cells were analyzed by FACS. MFI values of each point were obtained using CellQuest Pro software and were used for the affinity calculation using Graphpad Prism software and the one site binding (hyperbola) equation.

B1: Ha16-1(1)23 (antibody, V domains shown)
VH: VESGGGVVQPGRSLRLSCAASGFTFRSYGMHWVRQAPGKGLEWVAVIWSDGSNKYYADSVKGRFTISRDNSKNTLYLQMNSLRAEDTAVYYCAREGYYGSGSYYYYYGMDVWGQGTTVTVSS
VL: QAGLTQPPSVSKGLRQTATLTCTGNSNNVGTQGAAWLQQHQGHPPKLLSYRNNNRPSGISERLSASTSGNTASLTITGLQPEDEADYYCSAWDSSLSAVVFGGGTKLTVLG
In general, Kd refers to the equilibrium constant for the complex coming apart. The term koff denotes a measure of how fast the partners let go of each other. Broadly, the kon is a measure of how fast the partners come together. B1: in assay [1], the Kd is 24 nM, the off-rate constant (koff) came to 0.00088 s⁻¹ and the kon came to 36000 M⁻¹ s⁻¹.

B2: H16-9.65 (antibody, V domains shown)
VH: QVQLVESGGGVVQPGRSLRLSCAASGFTFSSYGMHWVRQAPGKGLEWVATIWFDGSNGYYADSVKGRFTISRDNSKNTLYLQMNSLRAEDTAVYYCARDSSGSYDHFDYWGQGTLVTVSS
VL: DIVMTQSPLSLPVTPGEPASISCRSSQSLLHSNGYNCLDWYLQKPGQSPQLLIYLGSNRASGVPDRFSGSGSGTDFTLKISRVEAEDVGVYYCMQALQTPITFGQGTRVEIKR
notes: Fully human XenoMouse MAb; Entries hold the leader (or part of it) and a portion of the constant region
Turning to B2, in assay [1], the Kd amounted to 5 nM, the koff came out at 0.000464 s⁻¹ and the kon was determined as 93700 M⁻¹ s⁻¹.

B3: H16-1.68 (antibody, V domains shown)
VH: EVHLVESGGGVVQPGRSLRLSCAASGFTFRSYGMHWVRQAPGKGLEWVAVIWYDGSNKYYADSVKGRFTISRDNSKNTLYLQMNSLRAEDMAMYYCARSRITIFGVVHYGMDVWGQGTTVTVSS
VL: TQLTQSPSSLSASVGDRVTITCRASQNINSYLNWYQQKPGKAPKLLIYAASSLQSGVPSRFSGSGSGTDFTLTISSLQPEDFTTYYCQQSYSSAPTFGGGTKLEIKR
In the case of B3, in assay [1], the equilibrium dissociation constant (Kd) was determined as 2.3 nM, the koff came to 0.000244 s⁻¹ and the kon worked out at 106000 M⁻¹ s⁻¹.

B4: H16-1.67 (antibody, V domains shown)
VH: VESGPGLVKPSQTLSLTCTVSGGSINSFGYYWSWIRQYPGKGLEWIGFLYFTGSTYYNPSLKSRVTISVDTSKSQFSLKLSSVTAADTAVYYCARAGTMVRGAHYYGMDVWGQGTTVTVSS
VL: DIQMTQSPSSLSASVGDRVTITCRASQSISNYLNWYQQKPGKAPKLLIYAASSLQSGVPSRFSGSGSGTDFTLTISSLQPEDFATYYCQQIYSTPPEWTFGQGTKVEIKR
For the molecule B4, the Kd in assay [2] is 0.02 nM. For the same molecule, in assay [1], the Kd was 43 nM, the koff is 0.0007 s⁻¹ and the kon was 16000 M⁻¹ s⁻¹.

B5: H16-7.8 (antibody, V domains shown)
VH: QVQLQESGPGLVKPSQTLSLTCTVSGGSISSGGYYWSWIRQHPGKGLEWIGIIYYSGSTYYNPSLKSRVTISVDTSKNQFSLKLNSVTAADTAVFYCARVAIVTTIPGGMDVWGQGTTVTVSS
VL: EIVLTQSPDFQSVTPKEKVTITCRASQSIGISLHWYQQKPDQSPKLLIKYASQSFSGVPSRFSGSGSGTDFTLTINSLEAEDAATYYCHQSRSFPWTFGQGTKVEIKR
notes: Entries hold the leader and a portion of the constant region
In assay [2], B5 gave a Kd of 0.07 nM. In addition, in assay [1], the Kd was 18 nM, the koff was found to be 0.00063 s⁻¹ and the kon came out at 35000 M⁻¹ s⁻¹.

B6: Ha16-1(3,5)18 (antibody, IgG1, V domains shown)
VH: GPGLVKPSETLSLTCTVPGGSIRSYFWSWIRQPAGKGLEWIGRFYFSGSTNYNPSLKSRVTMSVDTSKNQFSLKLSSVTAADTAVYYCARDYGDHYYYYGMDVWGQGTTVTVSS
VL: VLTQPPSVSAAPGQKVTISCSGSSSNIGNNYVSWYQQFPGTAPKFLIYDNNKRSSGIPDRFSGSKSGTSATLGITGLQTGDEADYYCGTWDSSLSAVIFGGGTKLTVL
notes: The limits of VH (1-114) and VL (1-108) are stated in CLM-00001; the entries also hold a portion of the constant region; also called Ha16-1(3, 5)18.1; ATCC PTA-7452
Take B6: binding in assay [2] was put at a Kd of 0.047 nM. Further, in assay [1], the dissociation constant Kd amounted to 28 nM, the koff was 0.00062 s⁻¹ and the kon was found to be 22000 M⁻¹ s⁻¹.

B7: H16-9.44 (antibody, V domains shown)
VH: LSLTCTVSGGSISSYYWSWIRQSAGKGLEWIGRIYTGVSTNYNPSLKSRVTMSVDTSKNQFSLKLSSVTAADTAVYYCARDYYDSSGYYPFDYWGQGTLVTVSS
VL: DIQMTQSPSSLSASVGDRVTISCRASQGISNYLAWFQQKPGKAPKSLIYAASSLENGVPSKFSGSGSGTDFTLTISSLQPEDFATYYCQQYNSSPFTFGPGTKVDIRR
notes: also called Ha16-9.44
Take B7: binding in assay [2] was characterised by a dissociation constant (Kd) of 1.27 nM. In addition, in assay [1], the Kd is 0.76 nM, the koff is 0.000132 s⁻¹ and the kon was found to be 174000 M⁻¹ s⁻¹.

B8: H16-9.10 (antibody, V domains shown)
VH: LLESGPGLVKPSQTLSLTCAISGDSVSSNSAAWNWIRQSPSRGLEWLGRTYYRSKWYNAYAVSVKSRMTINPDTSKNQFSLQLNSVTPEDTAVYYCAREAGGWFDPWGQGTLVTVSS
VL: DIQMTQSPSSVSASVGDRVTITCRASQGIRSWLAWYQQKPGKAPKLLIYAASSLQSGVPSRFSGSGSGTDFTLTISSLQPEDFATYYCQQANSFPPTFGGGTKVEIKR
notes: also called Ha16-9.10
Turning to B8, the dissociation constant (Kd) in assay [2] was 0.5 nM. Moreover, in assay [1], the Kd was 7.4 nM, the koff came out at 0.000442 s⁻¹ and the kon turned out to be 59500 M⁻¹ s⁻¹.

B9: H16-9.33 (antibody, V domains shown)
VH: EVQLLESGPGLVKPSQTLSLTCAISGDSVSSNSAAWNWIRQSPSRGLEWLGRTYYRSKYYNAYPVSVKSRITINPDTSKNQFSLQLNSVTPEDTAVYYCAREAGGWFDPWGQGTLVTVSS
VL: DIQMTQSPSSVSASVGDRVTITCRANQGIRSWLAWYQQKPGKAPKLLIYAASSLQSGVPSRFSGSGSGTDFTLTISSLQPEDFATYYCQQANSFPPTFGGGTKVEIKR
Turning to B9, in assay [1], the dissociation constant Kd is 3.9 nM, the koff was 0.000257 s⁻¹ and the kon came out at 66300 M⁻¹ s⁻¹.

B10: H16-7.213 (antibody, V domains shown)
VH: WGLSEVSCKASGYTFTGYYMHWVRQAPGQGLEWMGWINPNSGGTNYAQKFQGRVTMTRDTSISTAYMELSRLRSDDTAVYYCARELRYFGWLLSSLDYWGQGTLVTVSS
VL: DIQMTQSPSSLSASVGDRVTITCRASQSISSYLNWFQQKPGKAPKLLIYAASSLQSGVPSRFSGSESGTDFTLTISSLQPEDFATYSCQQSYSFPLTFGGGTKVEIKR
B10: in assay [1], the Kd is 3.9 nM, the koff was 0.000509 s⁻¹ and the kon turned out to be 129000 M⁻¹ s⁻¹.

B11: Ha16-1(3,5)36 (antibody, V domains shown)
VH: EVQLVESGPGLVKPSETLSLTCTVSGGSISSSSYYWGWIRQPPGKGLEWIGSMYYSGSTYHNPSLKSRVIISVDTSKNQFSLKLSSVTAADTAVYYCARHYITVAGIFDYWGQGTLVTVSS
VL: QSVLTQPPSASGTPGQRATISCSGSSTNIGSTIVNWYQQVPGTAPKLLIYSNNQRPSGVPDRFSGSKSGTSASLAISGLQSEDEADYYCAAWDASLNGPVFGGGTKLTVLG
With B11, in assay [1], the Kd was 8.7 nM, the koff turned out to be 0.00046 s⁻¹ and the kon came to 52900 M⁻¹ s⁻¹.

B12: Ha16-1(3,5)27.1 (antibody, V domains shown)
VH: LVESGAEVKKPGESLKISCKGSGYRFTSYWIGWVRQMPGKGLEWMGIIYPGDSDTRYSPSFQGQVTISADKSISTAYLQWSSLKASDTAMYYCARKDYYYYSMDVWGQGTTVTVSS
VL: GQSALTQPASVSGSPGQSITISCTGTSSDVGGYNYVSWYQQHPGQAPKLLIYGVNIRPSGVSTRFSGSKSGNTASLTISGLQAEDEADYYCSSYTRSSILVVFAGGTKLTVLG
notes: VH entry holds part of the leader; both hold a portion of the constant region
B12 registered a Kd in assay [2] of 0.014 nM. Further, in assay [1], the Kd stood at 4.8 nM, the koff came to 0.000177 s⁻¹ and the kon amounted to 36900 M⁻¹ s⁻¹.

B13: Ha16-1(3,5)56 (antibody, V domains shown)
VH: RCRLVESGAEVKKPGESLKISCKGSGYRFTSYWIGWVRQMPGKGLEWMGIIYPGDSDTRYSPSFQGQVTISADKSISTAYLQWRSLKASDTAMYYCARKDYYYYVMDVWGQGTTVTVSS
VL: DTISCTGTSSDVGNYNYVSWYQQHPGKAPKLMIYAVNNRPSGVSNRFSGSKSGNTASLTISGLQAEDEADYYCSSYTSSRNLVVFGGGTKLTVLG
In assay [2], B13 registered a Kd of 0.019 nM. Further, in assay [1], the Kd worked out at 14.5 nM, the dissociation rate constant (koff) was 0.000593 s⁻¹ and the kon turned out to be 40800 M⁻¹ s⁻¹.

B14: Ha16-1(3,5)19 (antibody, V domains shown)
VH: EVQLVQSGAEVKKPGESLKISCKGSGYRFTSYWIGWVRQMPGKGLEWMGIIYPGDSDTRYSPSFQGQVTISADKSISTAYLQWSSLKASDTAMYYCARKDYYYYAMDVWGQGTTVTVSS
VL: QSALTQPASVSGSPGQSITISCTGTSSDVGRYNYVSWYQQHPGQAPKLMIYGISIRPSGVSPRFSGSKSGNTASLTISGLQAEDEADYYCSSHTSNSTLVVFAGGTKLTVLG
notes: Entries hold part of the leader and a portion of the constant region
With B14, in assay [1], the Kd was 1.68 nM, the off-rate constant (koff) stood at 8.4e-05 s⁻¹ and the kon was 50000 M⁻¹ s⁻¹.

B15: H16-1(3,5)5 (antibody, V domains shown)
VH: EVQLVQSGAEVKKPGESLKISCKGSGYRFTSYWIGWVRQMPGKGLEWMGIIYPGDSDTRYSPSFQGQVTISADKSISTAYLQWSSLKASDTAMYYCARKDYYYYTMDVWGQGTTVTVSS
VL: QSALTQPASVSGSPGQSITISCTGTSSDVGGYNYVSWYQQHPGKAPKLMIYAVSNRPSGVSNRFSGSKSGNTASLTISGLQAEDEADYYCSSYTISRILVVFGGGTKLTVLG
notes: Entries hold the leader (or part of it) and a portion of the constant region; also called Ha16-1(3,5)5
As to B15, in assay [1], the Kd worked out at 7.2 nM, the koff stood at 4.76e-05 s⁻¹ and the kon amounted to 6600 M⁻¹ s⁻¹.

B16: Ha16-1(3,5)42 (antibody, V domains shown)
VH: EVQLVQSGAEVKKPGESLKISCKGSGYRFTSYWIGWVRQMPGKGLEWMGIIYPGDSDTRYSPSFQGQVTISADKSISTAYLQWSSLKASDTAMYYCARKDYYYYSMDVWGQGTTVTVSS
VL: QSALTQPASVSGSPGQSITISCTGTSSDVGRFNYVSWYQQRPGKAPKLMIYAVNIRPSGVSNRFSGSKSGNTASLTISGLQAEDEAGYYCSSYTSSSTLLVFGGGTKLTVLG
notes: Entries hold the leader (or part of it) and a portion of the constant region
On to B16, for which, in assay [1], the Kd turned out to be 4.3 nM, the off-rate constant (koff) worked out at 0.000205 s⁻¹ and the on-rate constant (kon) was determined as 47600 M⁻¹ s⁻¹.

B17: H16-9.69 (antibody, V domains shown)
VH: WGLSEVSCKASGYTFTSYDIHWVRQATGQGLEWMGWMNPNSGNTVYAQKFQGRVTMTRNTSISTAYMELSSLRSEDTAVYYCARTVLLWPFDYWGQGTLVTVSS
VL: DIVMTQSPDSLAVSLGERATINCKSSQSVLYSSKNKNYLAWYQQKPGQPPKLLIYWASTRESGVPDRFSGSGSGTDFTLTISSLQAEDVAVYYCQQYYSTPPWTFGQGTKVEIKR
Regarding B17, the Kd in assay [2] was 0.27 nM. For the same molecule, in assay [1], the Kd was determined as 4 nM, the koff stood at 0.000186 s⁻¹ and the on-rate (kon) came out at 42400 M⁻¹ s⁻¹.

B18: H16-1.93 (antibody, V domains shown)
VH: QVQLVQSGAEVKKPGASVKVSCKASGYTFTSYGISWVRQAPGQGLEWMGWISAYNGNTYYAQKLQARVTMTTDTSTSTAYMELRSLRSDDTAVYYCARDGYSSSWSLLHYYGMDVWGQGTTVTVSS
VL: DIQMTQSPSSLSASVGDRITITWRSSQGIYNSLAWYQQKPGKVPKLLIYAASTLHSGVPSRFSGSGSGTDFTLTISSLQPEDVATYYCQKYNSAPFTFGPGTKVDIKR
notes: Entries hold the leader (or part of it) and a portion of the constant region; also called ATCC PTA-7449
In turn, B18 yielded a Kd in assay [2] of 0.09 nM.

B19: Ha16-1(1)11 (antibody, V domains shown)
VH: GPGLVKPSETLSLTCTVSGGSISSYYWSWIRQPPGKGLEWIGYIYYSGSTNYNPSLKSRVTISVDTSKNQFSLKLSSVTAADTAVYYCARAVSYYYYGMDVWGQGTTVTVSS
VL: DIQMTQSPSSLSASVGDRVTITCRTIQNINSYLNWYQQRPGKAPKLLIYATSSLQSGVPSRFSGSGSGTDFTLTISSLQPEDFATYYCQQTYSTLFTFGPGTKVDIKR
notes: also called ATCC PTA-7450
Take B19: the Kd in assay [2] came to 0.004 nM. In addition, in assay [1], the Kd is 21.7 nM, the dissociation rate constant (koff) was 0.00143 s⁻¹ and the kon came out at 65800 M⁻¹ s⁻¹.

Values taken from patent US20090022663A1 (published 2009).
